Assay results as given in the DeepSol protein solubility set.

Test: soluble on expression in E. coli; label from the status in PepcDB or PDB records
For “VPRGSAKGDGVTDDTAALTSALNDTPVGQKINGNGKTYKVTSLPDISRFINTRFVYERIPGQPLYYASEEFVQGELFKITDTPYYNAWPQDKAFVYENVIYAPYMGSDRAGVSRLHVSWVKSGDDGQTWSTPEWLTDLHPDYPTVNYHCMSMGVCRNRLFAMIETRTLAKNALTNCALWDRPMSRSLHLTGGITKAANQRYATIHVPDHGLFVGDFVNFSNSAVTGVSGDMTVATVIDKDNFTVLTPNQQTSDLNNAGKNWHMGTSFHKSPWRKTDLGLIPSVTEVHSFATIDNNGFAMGYHQGDVAPREVGLFYFPDAFNSPSNYVRRQIPSEYEPDASEPCIKYYDGVLYLITRGTRGDRLGSSLHRSRDIGQTWESLRFPHNVHHTTLPFAKVGDDLIMFGSERAENEWEAGAPDDRYKASYPRTFYARLNVNNWNADDIEWVNITDQIYQGGIVNSGVGVGSVVVKDNYIYYMFGGEDHFNPWTYGDNSAKDPFKSDGHPSDLYCYKMKIGPDNRVSRDFRYGAVPNRAVPVFFDTNGVRTVPAPMEFTGDLGLGHVTIRASTSSNIRSEVLMEGEYGFIGKSIPTDNPAGQRIIFCGGEGTSSTTGAQITLYGANNTDSRRIVYNGDEHLFQSADVKPYNDNVTALGGPSNRFTTAYLGSNPIVT”, the “soluble on expression in E. coli” value was “soluble”.
In the case of “SSENLDKSNVNEAGKSKSNDSEEGLEDAVEGADEALQKAIKSDSSSPQRVQRPHSSPPRFVTVEELLETARGVTNMALAHEIVVNGDFQIKPVELPENSLKKRVKEIVHKAFWDCLSVQLSEDPPAYDHAIKLVGEIKETLLSFLLPGHTRLRNQITEVLDLDLIKQEAENGALDISRLAEFIIGMMGTLCAPARDEEVKKLKDIKEIVPLFREIFSVLDLMKVDMANFAISSIRPHLMQQSVEYERKKFQEILERQPNSLDFVTQWLEEASEDLMTQKYKHALPVGGMAAGSGDMPRLSPVAVQNYAYLKLLKWDHLQRPFPETVLMDQSRFHELQLQLEQLTILGAVLLVTFSMAAPGISSQADFAEKLKMIVKILLTDMHLPSFHLKDVLTTIGEKVCLEVSSCLSLCGSSPFTTDKETVLKGQIQAVASPDDPIRRIMESRILTFLETYLASGHQKPLPTVPGGLSPVQRELEEVAIKFARLVNYNKMVFCPYYDAILSKILVRS”, the “soluble on expression in E. coli” value was “soluble”.
For “KDADHIHHLIDQSLIAKGFQEILTNSLTKGAYNELLSKQEDAVPILNKLSEELAFMRPSLAFTGLETVAYNINRRQKNLKLFEWGKVYFKRGTKYNEYNRLSVFITGNQHAESWNTPSKTVDFFDMKAVVVQILEKLHIAVTQVQEIESNPLFSKGVIYKHAGKELVQFGYISQAALKATDVKQEVLFADFNADLLLELYSNKSKYKEIS”, the “soluble on expression in E. coli” value was “not soluble”.
With “MGSDKIHHHHHHMRSLSEFIENSQDKREIQRALAVKMLLEGYTHVAIQSILDVSSGFISKWKKAFFTFGVEGLKLRYKGSQGFLNPQQRYCVIEWLKTKEKWNLSELEYEIASSYGVVFESKQSYYDLFDAAGISWKKTQAHNPKYDEELVASKKKEICELLETRRSEIESGKLVVFMVDECHLLWGDICGYVWGKTSERISVPVVNARDKQTYFGAIDYKTHEFITYAAKKGDSQNMINFLEYLQSQRPGANLLIIWDGASYHRSNAIQDYLDSLNRQLEQEQWLITCKRFAPNAPQQNPVEDIWLQAKKLIREFYFFCHSFSVVKALFELAVNGQIFDFPKLNEYGNFSQMI” the “soluble on expression in E. coli” value was “not soluble”.
With HMGKIYAAMMIMEYYRQSKAKK the “soluble on expression in E. coli” value was “soluble”.
For “MGSRIMHVIIANGIAEKLSIHDKTSFLLGAVAPDAVHSKKEKGTSHFYAGTTKNYTRRIDYDSFFHKYESHINSPFILGYYTHLIADDNWLSGFFLPWLKNRIENDETIAPLYYNDFKLLNAKLLHHYDQEQQLFSLLNQEAHIVDIEEVSKENVLAFRKYLFEDMLYPKQYLHEDLQVFTFDQIVGYIETAIEKGVFFIKQLSNEKSTSKI”, the “soluble on expression in E. coli” value was “not soluble”.
With “MSYFGGLISTLFERRYQQALSDEVDSRTTCELCEALLSSHGEVSGVTLARNLLDRYAAMTEAEKTALFGFMAHDLEIDPDAVTHTLEAYKNNPGKDTYRAFAAACEPRRQELARRLNQVPGATGQLVQMRKDLLRMMKDHPDLEPVDVDFKHLFSSWFNRGFLVLRPIDWSSPANILEQIIAYEAVHEIDSWDELRRRLQPSDRRCFGFFHPSMADEPLIFVEVALTEGVPSSVQDLLADERDVITAQDADTAVFYSISNCQSGLAGISFGNSLIKQVVADLAKDLPGLTTFVTLSPIPGLNRWLQDADIDALKDADTQALAAHYLLEAKRSDGMPFDPVARFHLGNGALVHAVHAEADVSPNGRKQSNGAMVNYLYDLSQISQNHEKFVGDKIVVASTTVKALSGSVTTSLGTAAAAAALEHHHHHH” the “soluble on expression in E. coli” value was “soluble”.
For “MMPLSTPDFASIRDTLLRDLQNLRADADIAPDSDYFVRASSVASAVEGLYQHQSWIARQIFPDTADSEYLEQHARLRGIVRKPAAAASGTLRISGNAGAVVSGSLQLRIGEQLYATPAANPDGSPYAARLDANGQAELPIFASQAGAAGNQPESLPVELMQAPSGVSAKALLLSMRNGVDVEDDAALLDRLLELIRRPPAGGNRHDYRRWAMEVKGVSAAYVYPLRRGLGTVDVVITANGDLPSQEILNNVQAHIEDLRPVTAKSCLVLAPTPRPVDIDVALNLGGANLDAFTPLLQQTLQAYFAGLAPGERLVKSRIEALISDLPGVQDRQLNSPAGNVDPVSDPTKVEWLRLGKLTVGLLKLEHHHHHH”, the “soluble on expression in E. coli” value was “soluble”.
In the case of “MLLSNEEFLKKLTDLLQTHQSKGTGSVYLSQKCNPVDEGEGSSASVLIRAKSGAAEKISTVVELDYFTDFFQSYAEVCKGQIVGLKKRDRK”, the “soluble on expression in E. coli” value was “soluble”.
In the case of “MSSETITVERSGKVHHAEGDAARLDAYIPSECPQNHAANLLHLPNGDVLCVWFGGTQEGIADISIYMSRLVKDSGSWSKAAKLSEDATRSEQNPVLFLAPDNVLWLLYTAQKSGNQDTAIVRYRQSTDLGATWGEIGTLLDQPGTFIRQPITVLENGDWLLPVFYCRVQPGEKWVGNDDDSAVKISSDQGKTWREYPVPNSTGCVHMNITPLQDGTLLALYRSRWADFIYQSRSTDGGKTWSEPVATDLPNNNSSIQVTTLKNGHLALVFNHMSAADATDRRLSLYDEIEDEEDKASGAKMPEVQAGDRSAFWGAPRAPMTLAISEDGGKSWPYQRNIEVGDGYCMTNNSTEKLNREFSYPSVKQAPDGKLHVAFTYFRQAIKHVVVSEEWVKAGLEHHHHHH”, the “soluble on expression in E. coli” value was “not soluble”.
In the case of “MVPQTETKAGAGFKAGVKDYRLTYYTPDYVVRDTDILAAFRMTPQPGVPPEECGAAVAAESSTGTWTTVWTDGLTSLDRYKGRCYDIEPVPGEDNQYIAYVAYPIDLFEEGSVTNMFTSIVGNVFGFKALRALRLEDLRIPPAYVKTFVGPPHGIQVERDKLNKYGRGLLGCTIKPKLGLSAKNYGRAVYECLRGGLDFTKDDENVNSQPFMRWRDRFLFVAEAIYKAQAETGEVKGHYLNATAGTCEEMMKRAVCAKELGVPIIMHDYLTGGFTANTSLAIYCRDNGLLLHIHRAMHAVIDRQRNHGIHFRVLAKALRMSGGDHLHSGTVVGKLEGEREVILGFVDLMRDDYVEKDRSRGIYFTQDWCSMPGVMPVASGGIHVWHMPALVEIFGDDACLQFGGGTLGHPWGNAPGAAANRVALEACTQARNEGRDLAREGGDVIRSACKWSPELAAACEVWKEIKFEFDTIDKL”, the “soluble on expression in E. coli” value was “soluble”.
With “MTPFSDAAKNNTVKTDGDSVSGRDLPITKISEDRFERSAYSAQLANIICDVAPWGASTVFSLTGQWGSGKTSLVNLIRSEESLSNEKWTIVDFNPWVASDPQSLIEEFYRVIVGTVPDDKTGQKIKTVLQKTFSTIGSIAGGVGGFGVLEALALSKGVDAANAVYKTWKQEQDSWPTLYTRAANHFKDLNKRILIVVDDIDRLHTDELALLMKVIRLLGRFPQVNYLLVYEEESLLTTLARSTAVGGSEDDALRFMEKIVQYPFDVPPLTSFQIEKELSALFDKLFQGVSLSGDPEDFALVKSRMFDVWEKTLVTPRLLHRFAALLTNWTRIYGSGEVNGVDLTILATIRIVFPSVYKRLSRAKEVLLQGLEHHHHHH” the “soluble on expression in E. coli” value was “not soluble”.
For “MRNLAIVDLGSNSARMAVSRLHANGTAQEIKRVKEDTRLSEGMGTAHVLQPAAIERTIKALLNFRRLYEKMPNTDVIGITTAAVRMAQNQTEFLNQVKQEVGLDLRVLSGDDEAYYDYLGVANSLVIHDCLILDTGGASCELILVKNGRKQQLISIPFGAVTLSEQFGLDDLVPSASLFRAQMFLRNRLADIWWLSEAVHFPIILLGGANRTLARINRRRQQKLKVEDIHGYRLKTETVFHTFLDLLSRSKKGRQEISGMEYDRADIIVGGMLPLVTLLQMLDSDRVIFSESGVREGIISEHLNQLEHHHHHH”, the “soluble on expression in E. coli” value was “not soluble”.
In the case of “DDNERLSKVEKARQLREQVNDLFSRKFGEAIGMGFPVKVPYRKITINPGCVVVDGMPPGVSFKAPSYLEISSMRRILDSAEFIKFTVIRPFPGLVINNQLV”, the “soluble on expression in E. coli” value was “soluble”.
For “MSLTDNQDPLQLVQEFRSIAGEAALVCAEETEDQRDRTQFVNFELEAKLWYLVELLVSFRTSDAPMDDIELHDYNSNAVFKKAQLQEDPELYVVWLIIAWIQENLTVSPRPAELPTTKWSNTLLAGGLKSSDLDCPLREEGVQIHPKDNQDDHCFYKYMYELILAGKYEEVRRECEYSDNLTLGMIMCGLEDYVDPRIDLELAGDYEGHQGIKKRALWRRAVYALSRNPNLDKYEAAIYAFLSGTIPQDIDEQQLDWERMLLVYLNQIWNIKIENYLLEKERINKEELIEQMPSQPLSLSAVLNIVASKHVEESEHPIRVLMGAVILNTISPAVKSFIDMLLDAVKGVDQENDLLSEPYILRILTHLVIFLDKACPGVIEEGDKSKLVTTYVSLLNLYEQYDLVPVYISCLDEQDIMEAYSFFLSNLVGDSSRERQLELCYFFQLPTANILKRTAQRIFNDTEPHYNLADTVTMNSEVTDIDLHLISAVDWLMKGRLHVDAVESIIALCRRFLANGKVNSLSTFFEQHNMDDLIKNYELDQLSAKEEYPEDRFVQEIGQYTKLITGFRQYKNWENSSHTVSSSKNTSALLQQFQAFASTLRGLVTEFLVELTEHTDMPSEDRDMLYNIRSLYTPYLLIELHNSYTSTAEKLGVPSFLQEAVNLSTMVANETDKIYLLFQNSGKLKEYLHLVAKAVALIGHEGHHHHHH”, the “soluble on expression in E. coli” value was “not soluble”.
For “NVVETKALFVSTNDLARRLQKLNNEQKIQSNRLKTTIENIPSAILMIDRNGKIVVANKAYYEQFNISHNIEQVGYHGYVNTEIEQLILESFKVEKPIYEQLEVAINQVHAKYFDISCVPILTRSQKSLQGILVVMHD”, the “soluble on expression in E. coli” value was “not soluble”.
For “MAHHHHHHSLITIETVLTILKNNANFREIIDGKHYQYKYSNPEVAFHHISYDSRDIKASTLFFVKGATFKKEFLEKAIESGLTFYVAEKDYQVGIPLILVNNIKNAMCLIAKEFYDNPQDKLKTLAFTGTKGKTTAAYFAYHILKQGYRPAMISTMNTTLDGKTFFKSKLTTPESLDLFKMMAQAVANGMTHLIMEVSSQAYLVGRVYGLTFDVGVFLNISPDHIGPIEHPTFEDYFYHKRLLLKHSRYVIVNSQMNHFALIKEQVADQPHDFYGKYSDNQIINSKAFSFDLTGKLAGHYDIQLTGSFNQENAVAAALACLQLGASQTDIQKGIVQTTVPGRMEVLIQKNGAKVFVDYAHNGDSLEKLLSVVEEHQKGTLILILGAPGNKGESRRADFGYVINAHPELQVILTADDPNNEDPQLISQEIAHHIKRPVNIIVDRKQAIQKAMSLTQSENDAVIIAGKGADAFQIIKGKRTAYAGDIEVARKYLEG”, the “soluble on expression in E. coli” value was “soluble”.
In the case of “MDWNHYRFRSRWPLPAPAPDVYRALERIEDYPRWWPQVREVTRLDDTSGLLRFRSLLPYDLTATVREQRRDPTEGVLEVAMSGDMEGWARWTVAPRGSASLVRYDQEVVVRKPLLRRLAVPGRPLFRANHRLMMRAGRRGLAAHLAGGRQAVLEHHHHHH”, the “soluble on expression in E. coli” value was “soluble”.
